# B1: XPA23 light chain N30F (Fab, V domains shown)
# VH: EVQLLESGGGLVQPGGSLRLSCAASGFTFSKYFMFWVRQAPGKGLEWVSVISPSGGMTRYADSVKGRFTISRDNSKNTLYLQMNSLRAEDTAVYYCARVGYGGNSDYWGQGTLVTVSS
# VL: DIQMTQSPSSVSASVGDRLTIICRASQDIFRWLAWYQQTPGNAPKLLIHSATSLQSGVPSRFSGSGSGTDFTLTINSLQPEDFATYYCQQADSFPLTFGGGTKVEIK
# B2: XPA23 light chain N30P (Fab, V domains shown)
# VH: EVQLLESGGGLVQPGGSLRLSCAASGFTFSKYFMFWVRQAPGKGLEWVSVISPSGGMTRYADSVKGRFTISRDNSKNTLYLQMNSLRAEDTAVYYCARVGYGGNSDYWGQGTLVTVSS
# VL: DIQMTQSPSSVSASVGDRLTIICRASQDIPRWLAWYQQTPGNAPKLLIHSATSLQSGVPSRFSGSGSGTDFTLTINSLQPEDFATYYCQQADSFPLTFGGGTKVEIK
# B3: XPA23 light chain N30I (Fab, V domains shown)
# VH: EVQLLESGGGLVQPGGSLRLSCAASGFTFSKYFMFWVRQAPGKGLEWVSVISPSGGMTRYADSVKGRFTISRDNSKNTLYLQMNSLRAEDTAVYYCARVGYGGNSDYWGQGTLVTVSS
# VL: DIQMTQSPSSVSASVGDRLTIICRASQDIIRWLAWYQQTPGNAPKLLIHSATSLQSGVPSRFSGSGSGTDFTLTINSLQPEDFATYYCQQADSFPLTFGGGTKVEIK
# B4: XPA23 light chain P95R (Fab, V domains shown)
# VH: EVQLLESGGGLVQPGGSLRLSCAASGFTFSKYFMFWVRQAPGKGLEWVSVISPSGGMTRYADSVKGRFTISRDNSKNTLYLQMNSLRAEDTAVYYCARVGYGGNSDYWGQGTLVTVSS
# VL: DIQMTQSPSSVSASVGDRLTIICRASQDINRWLAWYQQTPGNAPKLLIHSATSLQSGVPSRFSGSGSGTDFTLTINSLQPEDFATYYCQQADSFRLTFGGGTKVEIK
# B5: XPA23 light chain N30T (Fab, V domains shown)
# VH: EVQLLESGGGLVQPGGSLRLSCAASGFTFSKYFMFWVRQAPGKGLEWVSVISPSGGMTRYADSVKGRFTISRDNSKNTLYLQMNSLRAEDTAVYYCARVGYGGNSDYWGQGTLVTVSS
# VL: DIQMTQSPSSVSASVGDRLTIICRASQDITRWLAWYQQTPGNAPKLLIHSATSLQSGVPSRFSGSGSGTDFTLTINSLQPEDFATYYCQQADSFPLTFGGGTKVEIK
# B6: XPA23 light chain N30G (Fab, V domains shown)
# VH: EVQLLESGGGLVQPGGSLRLSCAASGFTFSKYFMFWVRQAPGKGLEWVSVISPSGGMTRYADSVKGRFTISRDNSKNTLYLQMNSLRAEDTAVYYCARVGYGGNSDYWGQGTLVTVSS
# VL: DIQMTQSPSSVSASVGDRLTIICRASQDIGRWLAWYQQTPGNAPKLLIHSATSLQSGVPSRFSGSGSGTDFTLTINSLQPEDFATYYCQQADSFPLTFGGGTKVEIK
# B7: XPA23 light chain N30L (Fab, V domains shown)
# VH: EVQLLESGGGLVQPGGSLRLSCAASGFTFSKYFMFWVRQAPGKGLEWVSVISPSGGMTRYADSVKGRFTISRDNSKNTLYLQMNSLRAEDTAVYYCARVGYGGNSDYWGQGTLVTVSS
# VL: DIQMTQSPSSVSASVGDRLTIICRASQDILRWLAWYQQTPGNAPKLLIHSATSLQSGVPSRFSGSGSGTDFTLTINSLQPEDFATYYCQQADSFPLTFGGGTKVEIK
# B8: XPA23 light chain N30H (Fab, V domains shown)
# VH: EVQLLESGGGLVQPGGSLRLSCAASGFTFSKYFMFWVRQAPGKGLEWVSVISPSGGMTRYADSVKGRFTISRDNSKNTLYLQMNSLRAEDTAVYYCARVGYGGNSDYWGQGTLVTVSS
# VL: DIQMTQSPSSVSASVGDRLTIICRASQDIHRWLAWYQQTPGNAPKLLIHSATSLQSGVPSRFSGSGSGTDFTLTINSLQPEDFATYYCQQADSFPLTFGGGTKVEIK
# B9: XPA23 light chain N30S (Fab, V domains shown)
# VH: EVQLLESGGGLVQPGGSLRLSCAASGFTFSKYFMFWVRQAPGKGLEWVSVISPSGGMTRYADSVKGRFTISRDNSKNTLYLQMNSLRAEDTAVYYCARVGYGGNSDYWGQGTLVTVSS
# VL: DIQMTQSPSSVSASVGDRLTIICRASQDISRWLAWYQQTPGNAPKLLIHSATSLQSGVPSRFSGSGSGTDFTLTINSLQPEDFATYYCQQADSFPLTFGGGTKVEIK
# B10: XPA23 light chain N30Y (Fab, V domains shown)
# VH: EVQLLESGGGLVQPGGSLRLSCAASGFTFSKYFMFWVRQAPGKGLEWVSVISPSGGMTRYADSVKGRFTISRDNSKNTLYLQMNSLRAEDTAVYYCARVGYGGNSDYWGQGTLVTVSS
# VL: DIQMTQSPSSVSASVGDRLTIICRASQDIYRWLAWYQQTPGNAPKLLIHSATSLQSGVPSRFSGSGSGTDFTLTINSLQPEDFATYYCQQADSFPLTFGGGTKVEIK
# B11: XPA23 light chain P95E (Fab, V domains shown)
# VH: EVQLLESGGGLVQPGGSLRLSCAASGFTFSKYFMFWVRQAPGKGLEWVSVISPSGGMTRYADSVKGRFTISRDNSKNTLYLQMNSLRAEDTAVYYCARVGYGGNSDYWGQGTLVTVSS
# VL: DIQMTQSPSSVSASVGDRLTIICRASQDINRWLAWYQQTPGNAPKLLIHSATSLQSGVPSRFSGSGSGTDFTLTINSLQPEDFATYYCQQADSFELTFGGGTKVEIK
# B12: XPA23 light chain P95D (Fab, V domains shown)
# VH: EVQLLESGGGLVQPGGSLRLSCAASGFTFSKYFMFWVRQAPGKGLEWVSVISPSGGMTRYADSVKGRFTISRDNSKNTLYLQMNSLRAEDTAVYYCARVGYGGNSDYWGQGTLVTVSS
# VL: DIQMTQSPSSVSASVGDRLTIICRASQDINRWLAWYQQTPGNAPKLLIHSATSLQSGVPSRFSGSGSGTDFTLTINSLQPEDFATYYCQQADSFDLTFGGGTKVEIK
# B13: XPA23 light chain N30K (Fab, V domains shown)
# VH: EVQLLESGGGLVQPGGSLRLSCAASGFTFSKYFMFWVRQAPGKGLEWVSVISPSGGMTRYADSVKGRFTISRDNSKNTLYLQMNSLRAEDTAVYYCARVGYGGNSDYWGQGTLVTVSS
# VL: DIQMTQSPSSVSASVGDRLTIICRASQDIKRWLAWYQQTPGNAPKLLIHSATSLQSGVPSRFSGSGSGTDFTLTINSLQPEDFATYYCQQADSFPLTFGGGTKVEIK
# B14: XPA23 light chain P95Q (Fab, V domains shown)
# VH: EVQLLESGGGLVQPGGSLRLSCAASGFTFSKYFMFWVRQAPGKGLEWVSVISPSGGMTRYADSVKGRFTISRDNSKNTLYLQMNSLRAEDTAVYYCARVGYGGNSDYWGQGTLVTVSS
# VL: DIQMTQSPSSVSASVGDRLTIICRASQDINRWLAWYQQTPGNAPKLLIHSATSLQSGVPSRFSGSGSGTDFTLTINSLQPEDFATYYCQQADSFQLTFGGGTKVEIK
# B15: XPA23 light chain N30R (Fab, V domains shown)
# VH: EVQLLESGGGLVQPGGSLRLSCAASGFTFSKYFMFWVRQAPGKGLEWVSVISPSGGMTRYADSVKGRFTISRDNSKNTLYLQMNSLRAEDTAVYYCARVGYGGNSDYWGQGTLVTVSS
# VL: DIQMTQSPSSVSASVGDRLTIICRASQDIRRWLAWYQQTPGNAPKLLIHSATSLQSGVPSRFSGSGSGTDFTLTINSLQPEDFATYYCQQADSFPLTFGGGTKVEIK
# B16: XPA23 light chain P95N (Fab, V domains shown)
# VH: EVQLLESGGGLVQPGGSLRLSCAASGFTFSKYFMFWVRQAPGKGLEWVSVISPSGGMTRYADSVKGRFTISRDNSKNTLYLQMNSLRAEDTAVYYCARVGYGGNSDYWGQGTLVTVSS
# VL: DIQMTQSPSSVSASVGDRLTIICRASQDINRWLAWYQQTPGNAPKLLIHSATSLQSGVPSRFSGSGSGTDFTLTINSLQPEDFATYYCQQADSFNLTFGGGTKVEIK
# B17: XPA23 light chain N30Q (Fab, V domains shown)
# VH: EVQLLESGGGLVQPGGSLRLSCAASGFTFSKYFMFWVRQAPGKGLEWVSVISPSGGMTRYADSVKGRFTISRDNSKNTLYLQMNSLRAEDTAVYYCARVGYGGNSDYWGQGTLVTVSS
# VL: DIQMTQSPSSVSASVGDRLTIICRASQDIQRWLAWYQQTPGNAPKLLIHSATSLQSGVPSRFSGSGSGTDFTLTINSLQPEDFATYYCQQADSFPLTFGGGTKVEIK
# B18: XPA23 light chain P95K (Fab, V domains shown)
# VH: EVQLLESGGGLVQPGGSLRLSCAASGFTFSKYFMFWVRQAPGKGLEWVSVISPSGGMTRYADSVKGRFTISRDNSKNTLYLQMNSLRAEDTAVYYCARVGYGGNSDYWGQGTLVTVSS
# VL: DIQMTQSPSSVSASVGDRLTIICRASQDINRWLAWYQQTPGNAPKLLIHSATSLQSGVPSRFSGSGSGTDFTLTINSLQPEDFATYYCQQADSFKLTFGGGTKVEIK
# B19: XPA23 light chain P95H (Fab, V domains shown)
# VH: EVQLLESGGGLVQPGGSLRLSCAASGFTFSKYFMFWVRQAPGKGLEWVSVISPSGGMTRYADSVKGRFTISRDNSKNTLYLQMNSLRAEDTAVYYCARVGYGGNSDYWGQGTLVTVSS
# VL: DIQMTQSPSSVSASVGDRLTIICRASQDINRWLAWYQQTPGNAPKLLIHSATSLQSGVPSRFSGSGSGTDFTLTINSLQPEDFATYYCQQADSFHLTFGGGTKVEIK
# B20: XPA23 light chain N30W (Fab, V domains shown)
# VH: EVQLLESGGGLVQPGGSLRLSCAASGFTFSKYFMFWVRQAPGKGLEWVSVISPSGGMTRYADSVKGRFTISRDNSKNTLYLQMNSLRAEDTAVYYCARVGYGGNSDYWGQGTLVTVSS
# VL: DIQMTQSPSSVSASVGDRLTIICRASQDIWRWLAWYQQTPGNAPKLLIHSATSLQSGVPSRFSGSGSGTDFTLTINSLQPEDFATYYCQQADSFPLTFGGGTKVEIK
# B21: XPA23 light chain P95F (Fab, V domains shown)
# VH: EVQLLESGGGLVQPGGSLRLSCAASGFTFSKYFMFWVRQAPGKGLEWVSVISPSGGMTRYADSVKGRFTISRDNSKNTLYLQMNSLRAEDTAVYYCARVGYGGNSDYWGQGTLVTVSS
# VL: DIQMTQSPSSVSASVGDRLTIICRASQDINRWLAWYQQTPGNAPKLLIHSATSLQSGVPSRFSGSGSGTDFTLTINSLQPEDFATYYCQQADSFFLTFGGGTKVEIK
# B22: XPA23 light chain N30V (Fab, V domains shown)
# VH: EVQLLESGGGLVQPGGSLRLSCAASGFTFSKYFMFWVRQAPGKGLEWVSVISPSGGMTRYADSVKGRFTISRDNSKNTLYLQMNSLRAEDTAVYYCARVGYGGNSDYWGQGTLVTVSS
# VL: DIQMTQSPSSVSASVGDRLTIICRASQDIVRWLAWYQQTPGNAPKLLIHSATSLQSGVPSRFSGSGSGTDFTLTINSLQPEDFATYYCQQADSFPLTFGGGTKVEIK
# Target: T1, IL-1β (UniProt P01584 117-269)
# T1 construct: Antigen immobilised on the Biacore chip
# Assay: Biacore, periplasmic extract
Binder,fold difference in affinity vs original [fold],binding result
B1,1.59,
B2,0.69,
B3,0.65,
B4,,no binding
B5,0.97,
B6,0.71,
B7,0.68,
B8,1,
B9,0.72,
B10,1.4,
B11,0.88,
B12,1.32,
B13,0.61,
B14,,no binding
B15,0.74,
B16,,no binding
B17,0.6,
B18,,no binding
B19,,no binding
B20,1.06,
B21,0.98,
B22,0.89,

# Source: patent publication US20110118131A1 (published 2011)
